Measurements from patent US20260055186A1 (REPERTOIRE IMMUNE MEDICINES, published 2026).
Where two headings read alike, the source gives them in different places. One block for each binder: values may come before it.

Legend:
[1] = biological target: T1, human CD8 on human T cells (human, UniProt P01732 22-235); assay: flow cytometry on human CD8+ T cells, titration
T1 construct: whole, on cells; the antibodies were raised against human CD8 alpha; also called CD8 on human CD8+ T cells; hCD8
Protocol: (§1) The 24 humanized 02A01-derived anti-CD8 antibodies (excluding 02A01-VK3(D30E/N35Q)) were screened for their ability to bind human CD8 by evaluating binding to CD8+ T cells. The non-humanized parent (“02-Parent”) and the non-humanized parent comprising a heavy chain M39L liability mutation (“02-Parent-VH-M39L”) were used as controls. […] Cells were washed with 1×phosphate buffered saline (PBS) containing 1 mg/mL bovine serum albumin (PBS/BSA) and then stained with a 1:100 dilution of DyLight650-conjugated anti-human IgG H+L polyclonal antibody (ThermoFisher cat. no. Sa5-10129) in PBS/BSA. Following a 20-30 min incubation at 4° C., the cells were washed once with PBS/BSA, and then resuspended in PBS/BSA for analysis on a FACSCelesta using Diva software (BD Biosciences). The resulting data were analyzed using FlowJo. Data were quantified and reported as Max fluorescence intensity (MFI) of human IgG-Fc. […] Complete replacement of the HCDR1 (antibodies comprising VH5) eliminated binding to the CD8+ T cells.
(§2) Binding to human CD8+ T cells was tested at 7 serial 5-fold dilutions of each tested humanized 02A01 variant (from 50 nM to 3.2 pM). The resulting data were analyzed using FlowJo.

[2] = biological target: T1, human CD8 on human T cells; assay: flow cytometry on human CD3+ T cells, apparent KD, 4PL fit
Protocol: (§3) The amino acid sequences of the resulting murine anti-CD8 antibodies 02A01, 03A01, 04D08, 05F10, and 11F05 are provided in Tables 1-3 herein above. These antibodies were recombinantly produced. Their binding affinity to CD8 expressed on the cell surface was measured by flow cytometry, and their respective binding affinities are reported in Table 8 and Table 9. Briefly, human or cynomolgus monkey CD3⁺ T cells were incubated with […] of anti-CD8 antibodies (from 250 nM to […]) for 30 minutes. Following the incubation, unbound antibodies were washed away, and the bound antibodies were detected with a AlexaFluor-647-labeled anti-human Fc detection antibody. The median fluorescence intensity of AlexaFluor-647 on the live cells was used to evaluate anti-CD8 antibody levels on the cell surface. Binding affinity (KD) values for anti-CD8 antibody T cell binding were determined with GraphPad Prism 7.0 using 4-Parameter logistic regression.

human CD8α/β [3] = biological target: T2, human CD8α/β (human, UniProt P01732 22-182; P10966 22-170); assay: SPR, antibody captured on Protein A chip, hCD8α/β as analyte
T2 construct: Soluble heterodimer used in SPR and in the Carterra binning (there printed only as CD8α/β); also called hCD8α/β
T2 sequence (P01732 22-182, chain 1 of 2): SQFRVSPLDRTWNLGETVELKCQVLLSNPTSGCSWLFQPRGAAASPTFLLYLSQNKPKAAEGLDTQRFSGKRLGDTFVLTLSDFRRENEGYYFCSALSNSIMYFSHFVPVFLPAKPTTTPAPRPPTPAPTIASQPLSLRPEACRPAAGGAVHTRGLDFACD
T2 sequence (P10966 22-170, chain 2 of 2): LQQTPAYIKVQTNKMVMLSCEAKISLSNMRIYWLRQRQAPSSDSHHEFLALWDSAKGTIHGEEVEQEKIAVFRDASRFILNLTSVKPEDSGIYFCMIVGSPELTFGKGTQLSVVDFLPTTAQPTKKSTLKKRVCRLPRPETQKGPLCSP
Protocol: (§4) The binding affinities of six of the humanized anti-CD8 antibodies to human CD8 were also determined by surface plasmon resonance (SPR). Briefly, equilibrium dissociation constants for human CD8α/β were determined using a real-time SPR biosensor using a Protein A Sensor Chip (Cytiva) to capture purified anti-CD8 monoclonal antibodies at a concentration of 0.5 nM. SPR binding studies were performed in a buffer composed of Phosphate buffered saline, pH 7.2 containing 0.05% v/v Surfactant P20 (PBS-P20 buffer). Different concentrations of hCD8α/β prepared in PBS-P20 running buffer (ranging from 500 nM to 7.8 nM, 2-fold dilutions) were injected over the anti-CD8 monoclonal antibody captured surface. Association of hCD8α/β to the captured monoclonal antibody was monitored for 400 seconds and the dissociation of hCD8α/β in PBS-P20 running buffer was monitored for 600 sec. All of the binding kinetics experiments were performed at 25° C. Kinetic association (kₐ) and dissociation (kd) rate constants were determined by fitting the real-time sensorgrams to a 1:1 binding model using Scrubber 2.0c curve fitting software.

[4] = biological target: T1, human CD8 on human T cells; assay: flow cytometry on human CD8+ T cells, titration, apparent KD
Protocol: as §1, §2

[5] = biological target: T3, cynomolgus monkey CD8 on cynomolgus cells (cynomolgus monkey); assay: flow cytometry on cynomolgus CD3+ T cells, apparent KD, 4PL fit
T3 construct: whole, on cells; also called cynomolgus CD8
Protocol: as §3

human CD8α/β [6] = biological target: T2, human CD8α/β; assay: SPR, antibody captured on Protein A chip, hCD8α/β as analyte, 1:1 fit
Protocol: as §4

[7] = biological target: T1, human CD8 on human T cells; assay: flow cytometry, human CD8+ T cells, antibody at 0.2 nM, anti-human IgG detection (MFI AF647)
Protocol: as §1

[8] = biological target: T1, human CD8 on human T cells; assay: flow cytometry, human CD8+ T cells, antibody at 5 nM, anti-human IgG detection (MFI AF647)
Protocol: (§5) The 16 above-referenced humanized 03A01-derived anti-CD8 antibodies were screened for their ability to bind human CD8 by evaluating binding to CD8⁺ T cells. The non-humanized parent (“03-Parent”) and the non-humanized parent comprising a heavy chain D64E liability mutation (“03-Parent-VH-D64E”) were used as controls. […] Cells were washed with 1×phosphate buffered saline (PBS) containing 1 mg/mL bovine serum albumin (PBS/BSA) and then stained with a 1:100 dilution of DyLight650-conjugated anti-human IgG H+L polyclonal antibody (ThermoFisher cat. no. Sa5-10129) in PBS/BSA. Following a 20-30 min incubation at 4° C., the cells were washed once with PBS/BSA, and then resuspended in PBS/BSA for analysis on a FACSCelesta using Diva software (BD Biosciences). The resulting data were analyzed using FlowJo. Data were quantified and reported as Max fluorescence intensity (MFI) of human IgG-Fc. […] Complete replacement of the LCDR1 (antibodies comprising VK4) eliminated binding to the CD8⁺ T cells.

[9] = biological target: T1, human CD8 on human T cells; assay: flow cytometry on human CD8+ T cells, titration; remark: listed apart in the source
Protocol: as §5
(§6) The binding affinities of five of the above-referenced humanized anti-CD8 antibodies to human CD8 were determined by evaluating binding to CD8 human T cells using the method described above. Binding to human CD8+ T cells was tested at 7 serial 5-fold dilutions of each humanized 03A01 variant (from 50 nM to 3.2 pM). The resulting data were analyzed using FlowJo.

[10] = biological target: T1, human CD8 on human T cells; assay: flow cytometry on human CD8+ T cells, titration, apparent KD; remark: listed apart in the source
Protocol: as §5, §6

T1 sequence (P01732 22-235): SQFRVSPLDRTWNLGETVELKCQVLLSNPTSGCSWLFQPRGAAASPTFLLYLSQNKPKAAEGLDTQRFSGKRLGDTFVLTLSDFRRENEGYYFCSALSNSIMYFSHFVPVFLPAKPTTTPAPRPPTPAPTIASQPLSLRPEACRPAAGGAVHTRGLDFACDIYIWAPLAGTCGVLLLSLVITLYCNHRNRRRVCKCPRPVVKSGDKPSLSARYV

B1: Murine 02A01 (antibody, V domains shown)
VH: EVQLQQSGPELVKPGASLKISCKASGYTFTDFTMHWVKQSHGKSLEWIGLVNPNNGGNIYNQNFKGKATLTVDTSSSTAYMELRSLTSEDSSVYYCGRVPLYTSHGMDYWGQGTSVTVSS
VL: DIVLTQSPAFLAVSLGQRATISCRASESVDSYDINSMHWYQQKPGQPPKLLIYRASHLQSGIPARFSGSGSRTDFTLTINFVEADDVATYYCQQSNEDPLTFGAGTKLELK
notes: Recombinantly produced IgG; also called 02-parental; 02-Parent
- Fold Change to Parental Apparent KD [1]: 1 fold
- Maximum CD8+ T cell Binding (MFI) [1]: 2900 MFI
- Kd [2]: 0.047 nM
- Fold Change to Parental Calculated KD (human CD8α/β [3]): 1 fold
- Kd [4]: 0.057 nM
- Kd [5]: 0.075 nM
- Kd (human CD8α/β [6]): 9.29 nM

B3: humanized 02A01-VH5-VK3 (antibody, human IgG1, V domains shown)
VH: EVQLVQSGAEVKKPGATLKISCKASGYTFTDYYMHWVQQAPGKGLEWIGLVNPNNGGNIYNQNFKGRATLTVDTSTSTAYMELSSLRSEDTSVYYCGRVPLYTSHGMDYWGQGTLVTVSS
VL: EIVLTQSPATLSLSPGERATISCRASESVDSYDINSMHWYQQKPGQAPRLLIYRASHLQSGIPARFSGSGSRTDFTLTISSLEPEDFATYYCQQSNEDPLTFGQGTKLEIK
notes: human IgG1 format; VH5 has the HCDR1 of the top human germline hit
- binding result [7]: no binding (tested: 0.2 nM)

B4: humanized 02A01-VH5-VK2 (antibody, human IgG1, V domains shown)
VH: EVQLVQSGAEVKKPGATLKISCKASGYTFTDYYMHWVQQAPGKGLEWIGLVNPNNGGNIYNQNFKGRATLTVDTSTSTAYMELSSLRSEDTSVYYCGRVPLYTSHGMDYWGQGTLVTVSS
VL: EIVLTQSPATLSVSPGERATISCRASESVDSYDINSMHWYQQKPGQAPRLLIYRASHLQSGIPARFSGSGSRTDFTLTISSVEPEDFATYYCQQSNEDPLTFGQGTKLEIK
notes: as for B3
- binding result [7]: no binding (tested: 0.2 nM)

B5: 05F10 (antibody, V domains shown)
VH: EVQLVESGGGLVKPGGSLKLSCAASGFTFSSFAMSWVRQTPAKRLEWVATISSGDLSANYPDTVKGRFTISRDNAKNTLYLQMSSLRSEDTAMYYCTRPPFYFSNDWFAYWGQGTLVTVSA
VL: DVVMTQTPLSLPVSLEDQASISCRSSQSLEHSNGNTYLHWYLQKPGQSPRLLIYKVSNRFSGVPDRFSGSGSGTDFTLKISRVEAEDLGVYFCSQSTHVPFTFGSGTKLEIK
notes: Recombinantly produced murine anti-CD8 IgG
- Kd [2]: 0.242 nM
- Kd [5]: 39.8 nM

B6: humanized 03A01-VH1-VK4 (antibody, human IgG1, V domains shown)
VH: EVQFQESGPGLVKPSQTLSLTCTVTGYSITSDFAWNWIRQPPGKELEWMGYISYSGDTNYNPSLRSRITISRDTSKNQFSLKLSSVTAADTATYYCTIRGYYTDSAFVFWGQGTLVTVSS
VL: DIQMTQSPSTLSVSVGDRVTITCRASQSISSWLAWYQQKPGKAPKLLISGATSLETGVPSRFSGSGSGLEYTLTISSLQPDDFATYYCQQYWNSPFTFGQGTKLEIK
notes: human IgG1 format; VK4 has the LCDR1 of the top human germline hit
- binding result [8]: no binding (tested: 5 nM)

B8: humanized 03A01-VH4-VK4 (antibody, human IgG1, V domains shown)
VH: EVQFQESGPGLVKPSQTLSLTCTVSGYSITSDFAWNWIRQPPGKGLEWIGYISYSGDTYYNPSLKSRVTISRDTSKNQFSLKLSSVTAADTAVYYCTIRGYYTDSAFVFWGQGTLVTVSS
VL: DIQMTQSPSTLSVSVGDRVTITCRASQSISSWLAWYQQKPGKAPKLLISGATSLETGVPSRFSGSGSGLEYTLTISSLQPDDFATYYCQQYWNSPFTFGQGTKLEIK
notes: as for B6
- binding result [8]: no binding (tested: 5 nM)

The next lines start with the values.

- binding result [7]: no binding (tested: 0.2 nM)
B2: humanized 02A01-VH5-VK1 (antibody, human IgG1, V domains shown)
VH: EVQLVQSGAEVKKPGATLKISCKASGYTFTDYYMHWVQQAPGKGLEWIGLVNPNNGGNIYNQNFKGRATLTVDTSTSTAYMELSSLRSEDTSVYYCGRVPLYTSHGMDYWGQGTLVTVSS
VL: EIVLTQSPATLSVSPGERATISCRASESVDSYDINSMHWYQQKPGQPPRLLIYRASHLQSGIPARFSGSGSRTDFTLTISSVEPEDFATYYCQQSNEDPLTFGQGTKLEIK
notes: as for B3

- Fold Change to Parental Apparent KD [9]: 2.1 fold
- Kd [10]: 1.98 nM
B7: humanized 03A01-VH3-VK3 (antibody, human IgG1, V domains shown)
VH: EVQFQESGPGLVKPSQTLSLTCTVSGYSITSDFAWNWIRQPPGKGLEWMGYISYSGDTNYNPSLKSRVTISRDTSKNQFSLKLSSVTAADTAVYYCTIRGYYTDSAFVFWGQGTLVTVSS
VL: DIQMTQSPSTLSASVGDRVTITCKASDHINNWLAWYQQKPGKAPKLLISGATSLETGVPSRFSGSGSGLEYTLTISSLQPDDFATYYCQQYWNSPFTFGQGTKLEIK
notes: human IgG1 format; also called 03-VH3/VK3

- binding result [8]: no binding (tested: 5 nM)
B9: humanized 03A01-VH3-VK4 (antibody, human IgG1, V domains shown)
VH: EVQFQESGPGLVKPSQTLSLTCTVSGYSITSDFAWNWIRQPPGKGLEWMGYISYSGDTNYNPSLKSRVTISRDTSKNQFSLKLSSVTAADTAVYYCTIRGYYTDSAFVFWGQGTLVTVSS
VL: DIQMTQSPSTLSVSVGDRVTITCRASQSISSWLAWYQQKPGKAPKLLISGATSLETGVPSRFSGSGSGLEYTLTISSLQPDDFATYYCQQYWNSPFTFGQGTKLEIK
notes: as for B6

- Fold Change to Parental Apparent KD [9]: 1.8 fold
- Kd [10]: 1.65 nM
B10: humanized 03A01-VH3-VK1 (antibody, human IgG1, V domains shown)
VH: EVQFQESGPGLVKPSQTLSLTCTVSGYSITSDFAWNWIRQPPGKGLEWMGYISYSGDTNYNPSLKSRVTISRDTSKNQFSLKLSSVTAADTAVYYCTIRGYYTDSAFVFWGQGTLVTVSS
VL: DIQMTQSSSTLSVSLGDRVTITCKASDHINNWLAWYQQKPGKAPRLLISGATSLETGVPSRFSGSGSGLEYTLTISSLQPDDFATYYCQQYWNSPFTFGQGTKLEIK
notes: human IgG1 format; also called 03-VH3/VK1

- binding result [8]: no binding (tested: 5 nM)
B11: humanized 03A01-VH2-VK4 (antibody, human IgG1, V domains shown)
VH: EVQFQESGPGLVKPSQTLSLTCTVSGYSITSDFAWNWIRQPPGKGLEWMGYISYSGDTNYNPSLRSRITISRDTSKNQFSLKLSSVTAADTAVYYCTIRGYYTDSAFVFWGQGTLVTVSS
VL: DIQMTQSPSTLSVSVGDRVTITCRASQSISSWLAWYQQKPGKAPKLLISGATSLETGVPSRFSGSGSGLEYTLTISSLQPDDFATYYCQQYWNSPFTFGQGTKLEIK
notes: as for B6
